Results as given in article PMC3252277.
One block for each substance: values may come before it.

Tests used:
[1] = target: C-terminal recombinant ADAMTS-10 polypeptide (human) (UniProt Q9H324); assay: SPR; data not shown; N-terminal fibrillin-1 polypeptide with the C-terminal end of ADAMTS-10
[2] = target: fibrillin-1 N-terminal half (Homo sapiens) (UniProt P35555); settings: cited from earlier work
[3] = target: C-terminal recombinant ADAMTS-10 polypeptide (human) (UniProt Q9H324); assay: SPR; C-terminal end of ADAMTS-10 coupled to a chip; soluble C-terminal ADAMTSL-3 at 80-0 nM; 25°C, HBS-EP buffer

Sequence of UniProt Q9H324 (Q9H324 26-1103): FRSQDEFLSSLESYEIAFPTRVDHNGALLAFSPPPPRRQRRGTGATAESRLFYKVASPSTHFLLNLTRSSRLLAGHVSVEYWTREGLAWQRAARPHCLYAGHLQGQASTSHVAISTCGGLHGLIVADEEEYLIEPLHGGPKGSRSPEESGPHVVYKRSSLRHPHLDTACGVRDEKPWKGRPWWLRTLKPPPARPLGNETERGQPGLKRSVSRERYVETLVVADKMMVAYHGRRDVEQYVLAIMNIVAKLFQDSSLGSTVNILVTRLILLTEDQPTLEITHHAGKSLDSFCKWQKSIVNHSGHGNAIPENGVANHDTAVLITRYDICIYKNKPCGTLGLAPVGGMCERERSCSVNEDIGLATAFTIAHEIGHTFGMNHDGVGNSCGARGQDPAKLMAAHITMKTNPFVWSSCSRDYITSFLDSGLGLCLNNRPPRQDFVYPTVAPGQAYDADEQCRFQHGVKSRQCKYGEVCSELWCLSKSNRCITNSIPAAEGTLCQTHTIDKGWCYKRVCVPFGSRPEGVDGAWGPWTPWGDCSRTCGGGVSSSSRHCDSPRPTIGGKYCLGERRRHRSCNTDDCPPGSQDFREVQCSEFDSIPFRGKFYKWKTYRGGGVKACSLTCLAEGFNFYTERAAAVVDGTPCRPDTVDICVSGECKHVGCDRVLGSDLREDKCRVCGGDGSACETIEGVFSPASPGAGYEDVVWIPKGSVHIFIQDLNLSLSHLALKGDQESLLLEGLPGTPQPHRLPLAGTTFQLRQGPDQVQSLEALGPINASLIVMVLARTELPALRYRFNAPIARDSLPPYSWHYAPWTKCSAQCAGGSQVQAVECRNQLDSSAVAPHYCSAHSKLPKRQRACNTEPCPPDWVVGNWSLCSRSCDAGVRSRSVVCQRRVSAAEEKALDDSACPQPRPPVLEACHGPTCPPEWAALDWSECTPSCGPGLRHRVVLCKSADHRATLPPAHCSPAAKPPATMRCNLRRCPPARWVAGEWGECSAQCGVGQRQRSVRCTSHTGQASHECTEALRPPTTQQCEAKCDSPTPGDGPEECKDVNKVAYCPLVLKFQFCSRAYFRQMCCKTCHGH
Sequence of UniProt P35555 (P35555 45-1527): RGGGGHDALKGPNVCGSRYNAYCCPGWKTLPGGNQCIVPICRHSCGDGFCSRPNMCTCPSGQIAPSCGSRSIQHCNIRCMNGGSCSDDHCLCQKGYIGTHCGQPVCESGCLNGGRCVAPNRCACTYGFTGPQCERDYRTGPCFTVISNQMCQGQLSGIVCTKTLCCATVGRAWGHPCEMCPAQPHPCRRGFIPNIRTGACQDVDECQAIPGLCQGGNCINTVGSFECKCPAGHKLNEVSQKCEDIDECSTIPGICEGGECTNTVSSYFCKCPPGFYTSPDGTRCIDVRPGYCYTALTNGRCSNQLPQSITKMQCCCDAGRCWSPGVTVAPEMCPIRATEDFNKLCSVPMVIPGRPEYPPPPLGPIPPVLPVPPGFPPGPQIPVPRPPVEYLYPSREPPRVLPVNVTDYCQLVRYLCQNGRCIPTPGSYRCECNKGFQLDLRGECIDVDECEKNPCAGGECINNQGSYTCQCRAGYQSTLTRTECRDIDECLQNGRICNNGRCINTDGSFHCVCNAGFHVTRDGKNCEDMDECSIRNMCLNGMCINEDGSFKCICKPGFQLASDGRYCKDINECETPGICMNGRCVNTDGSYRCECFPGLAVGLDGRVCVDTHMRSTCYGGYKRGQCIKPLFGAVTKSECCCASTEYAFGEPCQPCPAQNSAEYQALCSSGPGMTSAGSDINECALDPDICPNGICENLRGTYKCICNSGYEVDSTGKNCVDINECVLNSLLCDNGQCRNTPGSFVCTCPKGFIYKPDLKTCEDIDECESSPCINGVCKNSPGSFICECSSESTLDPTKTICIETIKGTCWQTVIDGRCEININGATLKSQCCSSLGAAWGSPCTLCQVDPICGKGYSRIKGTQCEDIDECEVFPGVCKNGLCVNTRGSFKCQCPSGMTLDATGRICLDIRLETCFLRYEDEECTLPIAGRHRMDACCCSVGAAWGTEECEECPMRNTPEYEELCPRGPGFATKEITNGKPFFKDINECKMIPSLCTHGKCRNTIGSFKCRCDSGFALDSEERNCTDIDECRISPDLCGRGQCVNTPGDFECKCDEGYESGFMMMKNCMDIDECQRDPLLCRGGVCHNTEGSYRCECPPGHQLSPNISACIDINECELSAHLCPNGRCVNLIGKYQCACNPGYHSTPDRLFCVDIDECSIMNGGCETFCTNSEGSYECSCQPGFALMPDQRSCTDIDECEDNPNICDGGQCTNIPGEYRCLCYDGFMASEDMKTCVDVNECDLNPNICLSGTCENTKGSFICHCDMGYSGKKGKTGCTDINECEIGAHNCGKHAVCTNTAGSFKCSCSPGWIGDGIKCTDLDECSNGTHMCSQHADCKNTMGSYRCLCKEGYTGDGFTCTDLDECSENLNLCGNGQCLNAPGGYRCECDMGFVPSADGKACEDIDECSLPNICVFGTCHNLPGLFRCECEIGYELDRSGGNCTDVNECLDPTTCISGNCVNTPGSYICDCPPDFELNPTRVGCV

Kd [1]: 450 nM
Substance: rF90, recombinant N-terminal half of wildtype fibrillin-1 (from UniProt P35555 25-2871) (domain or fragment)

Substance: ADAMTSL-6 (from UniProt Q6ZMP0)
Kd [2]: 80 nM

Kd [3]: 2 nM
Substance: C-terminal ADAMTSL-3 polypeptide (domain or fragment)
